The Kd is the free concentration of one partner at which half of the binding sites on the other are occupied at equilibrium, for simple one-to-one binding.

For assay [1], the target named is actin (UniProt P68135). In words: MST.
Assay [2] concerns the target plasminogen (affinity column for M. pneumoniae lysate; microscale thermophoresis). In words: MST; fluorescently labelled host protein, Ef-Tu unlabelled; 40%, 60% and 80% MST power, 30 s.
Assay [3] addresses fetuin (UniProt P12763). The description is as above.
UniProt P12763, sequence (P12763 19-359): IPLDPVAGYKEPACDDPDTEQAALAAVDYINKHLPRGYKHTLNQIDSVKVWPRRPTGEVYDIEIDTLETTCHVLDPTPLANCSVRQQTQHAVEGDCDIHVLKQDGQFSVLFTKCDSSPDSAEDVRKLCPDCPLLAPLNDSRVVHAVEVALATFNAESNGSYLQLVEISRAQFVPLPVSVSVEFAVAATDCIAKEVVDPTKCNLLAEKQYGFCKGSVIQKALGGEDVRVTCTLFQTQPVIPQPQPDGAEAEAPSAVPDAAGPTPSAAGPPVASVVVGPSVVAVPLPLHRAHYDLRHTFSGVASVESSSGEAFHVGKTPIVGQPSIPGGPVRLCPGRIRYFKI

Regarding “recombinant Elongation factor Tu of Mycoplasma pneumoniae (from UniProt P23568 1-394) (natural protein)”, the results for the Kd in assay [1] and in assay [2] were 0.019 µM and 0.933 µM, respectively.
“recombinant Elongation factor Tu of Mycoplasma pneumoniae (from UniProt P23568 1-394) (natural protein; other documents disagree on this pair)”: the Kd in assay [3] was 0.053 µM.

For the origin of these results see PMC5593925.
